Experimental data reported in patent US20120172298A1, “GLP-1 AND FGF21 COMBINATIONS FOR TREATMENT OF DIABETES TYPE 2” (Novo Nordisk A/S, priority 2009, published 2012).

Columns and labels:
db/db mice [1] = test: Effect on blood glucose in vivo, acute study in db/db mice; conditions: compound F1 0.125 mg/kg s.c. 1 × daily for 3 days and/or compound G4 1 nmol/kg s.c. one hour after last FGF21 dose, 0-48 hours post GLP-1 dose
Method: This acute in vivo study investigates the effect of FGF21 and GLP-1 compounds on blood glucose levels of db/db mice.
The db/db mouse is a hyperglycaemic, hyperinsulinaemic, hyperphagic and obese model of type 2 diabetes.
23 db/db mice (Male, C57BLKS db/db, from Taconic, Denmark, 15-16 weeks of age).
Dosed subcutaneously 1 × daily with 0.125 mg/kg human FGF21 (n=11) (compound F1) or vehicle (n=12) for 3 days. Vehicle was sterile PBS-buffer (DPBS, Gibco, cat. no. 14190).
Both groups of animals were then dosed with either vehicle or GLP-1 compound G4 at 1 nmol/kg (n=5-6). The G4 compound is a GLP-1 analogue which has an extended half-life due to its derivatisation with an albumin binder. The GLP-1 or vehicle dose was given subcutaneously one hour after the last FGF21 or vehicle dose.
Blood samples of 10 μl were taken from the tip of the tail for the measurement of blood glucose from 0-48 hours post dose of the GLP-1 compound.
Results were analysed using the area under the glucose curve (AUC) for the vehicle group, the GLP-1 group, the FGF21 group and the combined group.
The expected AUC was calculated using the following formula: […]
AUCvehicle−((AUCvehicle−AUCFGF212)+(AUCvehicle−AUCGLP-1))

[2] = system: rat insulinoma beta-cells (INS-1); test: Cell viability of INS-1 beta-cells exposed to free fatty acids (MTT assay); type: cell-based; conditions: 48 hours, FGF21 compound = F1 50 nM, GLP-1 compound = G1 50 nM, mean +/- SEM
Method: (§1) This ex vivo example investigates the influence of FGF21 and GLP-1 compounds on FFA (free fatty acid) induced apoptosis of rat insulinoma beta-cells (INS-1).
(§2) Compound F1 (Prospec, cat. no. CYT-474) was used as the FGF21 compound, and compound G1 was used as the GLP-1 compound.
INS-1 cells were seeded in 96-well plates (50000 cells/well) and incubated overnight in cell medium (RPMI 1640 medium (Gibco, cat. no. 61870-010), supplemented with 10% FCS (Gibco, cat. no. 10085-140), 1% Pen/Strep (Gibco, cat. no. 15140-114) and 0.5 ml beta-mercaptoethanol (Gibco, cat. no. 31350-010 (50 mM)). The FGF21 compound (50 nM) and the GLP-1 compound (50 nM) were added to the cells 1 hour before the cells were to be exposed to FFA. The FFA's were prepared as follows: Stock solutions of palmitic acid (Sigma P5585) and oleic acid (Sigma 01383) of 1M in DMSO were mixed 1:2 and heated to 60 degree Celsius. The FFA mix was then diluted 10 times in 0.1M NaOH. This mixture was then further diluted in cell medium to yield a FFA concentration of 1 mM. The FFAs were then added to the cells to a final concentration of 0.35 mM. […]

[3] = system: rat insulinoma beta-cells (INS-1); test: Insulin accumulated in the medium of INS-1 cells during 48 hour incubation with FFA; type: cell-based; conditions: for Insulin accumulated in the medium: 48 hours, FGF21 compound = F1 50 nM, GLP-1 compound = G1 50 nM, mean +/- SEM
Method: as §1, §2
INS-1 cells were seeded in 96-well plates (50000 cells/well) and incubated overnight in cell medium (RPMI 1640 medium (Gibco, cat. no. 61870-010), supplemented with 10% FCS (Gibco, cat. no. 10085-140), 1% Pen/Strep (Gibco, cat. no. 15140-114) and 0.5 ml beta-mercaptoethanol (Gibco, cat. no. 31350-010 (50 mM)). The FGF21 compound (50 nM) and the GLP-1 compound (50 nM) were added to the cells 1 hour before the cells were to be exposed to FFA. The FFA's were prepared as follows: Stock solutions of palmitic acid (Sigma P5585) and oleic acid (Sigma 01383) of 1M in DMSO were mixed 1:2 and heated to 60 degree Celsius. The FFA mix was then diluted 10 times in 0.1M NaOH. This mixture was then further diluted in cell medium to yield a FFA concentration of 1 mM. The FFAs were then added to the cells to a final concentration of 0.35 mM. The cells were incubated for 48 hours and then the following three assays were performed: 1) Cell viability was assessed using the CellTiter 96® Non-radioactive Cell Proliferation Assay (MTT) from Promega, performed according to the manufacturer's instruction (absorbance at 550 nm, A550); 2) Apoptosis was assessed using the Apo-ONE® Homogeneous Caspase-3/7 Assay from Promega, performed according to the manufacturer's instruction (fluorescence); and 3) Insulin accumulated in the medium during the 48 hour incubation with FFA was analysed (as described in Example 3; ng/ml insulin).
The results of 1), 2) and 3) are shown in Tables 4, 5, and 6 below, respectively, all figures being mean+/−standard error of mean (SEM). […]

db/db mice [4] = test: Effect on blood glucose in vivo, subchronic study in db/db mice; conditions: F1 0.5 mg/kg, G1 30 nmol/kg or both
Method: This subchronic in vivo dosing study investigates the effect of GLP-1 and FGF21 compounds on blood glucose. The study was performed in db/db mice (as described in Example 5).
48 db/db mice, male, 11-12 weeks of age at study start.
Dosed subcutaneously 2 × daily with either (i) 0.5 mg/kg human FGF21 (compound F1; n=12); (ii) 30 nmol/kg of GLP-1 compound G1 (n=12); (iii) a combination of 0.5 mg/kg of compound F1 and 30 nmol/kg of compound G1 (n=12); or (iv) vehicle (sterile PBS buffer, n=12).
All groups were dosed for 21 days.
Blood samples of 10 μl were taken from the tip of the tail for blood glucose measurements once weekly.

B1: Met-FGF21_human (protein, listed as Homo sapiens)
chain: HPIPDSSPLLQFGGQVRQRYLYTDDAQQTEAHLEIREDGTVGGAADQSPESLLQLKALKPGVIQILGVKTSRFLCQRPDGALYGSLHFDPEACSFRELLLEDGYNVYQSEAHGLPLHLPGNKSPHRDPAPRGPARFLPLPGLPPALPEPPGILAPQPPDVGSSDPLSMVGPSQGRSPSYAS
modifications: N-terminal Met; mat_peptide (1)..(181); DISULFID (75)..(93)
db/db mice [1]
  Glucose lowering capacity (AUC), blood glucose AUC0-48 h, mean: 389.8 mM·min
[2]; FFA 0.00 mM
  Cell viability (MTT assay, A550): 1.19 +/− 0.05
[2]; FFA 0.35 mM
  Cell viability (MTT assay, A550): 0.28 +/− 0.01
[3]; FFA 0.00 mM
  Insulin accumulated in the medium: 1011 ± 112 ng/mL
[3]; FFA 0.35 mM
  Insulin accumulated in the medium: 569 ± 14 ng/mL
[3]; absence of free fatty acids, F1 50 nM
  stimulation of insulin release: does not stimulate insulin release
db/db mice [4]; Day 0, s.c. 2 × daily
  Blood glucose: 19.9 ± 1.2 mmol/L
db/db mice [4]; Day 7, s.c. 2 × daily
  Blood glucose: 17.2 ± 1.3 mmol/L
db/db mice [4]; Day 14, s.c. 2 × daily
  Blood glucose: 16.2 ± 1.8 mmol/L
db/db mice [4]; Day 21, s.c. 2 × daily
  Blood glucose: 19.2 ± 3.0 mmol/L
